This is an account of results in US20110021362A1, “AGENTS FOR STIMULATING ACTIVITY OF METHYL MODIFYING ENZYMES AND METHODS OF USE THEREOF” (CONSTELLATION PHARMACEUTICALS, priority 2009, published 2011).

Assay [1] deals with recombinant Polycomb Repressive Complex 2 (rPRC2) complex, including EZH2, EED, SUZ12, RBAP46, and RBAP48 subunits (human) (UniProt Q15910). The assay is described as follows: cell-based or functional assay.
The next assay addresses rPRC2 (Homo sapiens, UniProt O75530+Q15910). The assay is described as follows: rPRC2 methylase stimulation assay (3H-SAM, FLASHplate/TopCount). Type of assay: biochemical. The settings on record: FIG. 5, histone peptides ~1.86 μM, oligonucleosomes 14.95 nM, 45 min at 30° C. The text has this:
Polycomb repressive complex 2 (PRC2) is a multisubunit methylase complex that includes EZH2 (Enhancer of Zeste Homolog 2), EED, SUZ12, Rbap46, and Rbap48 subunits. Reconstituted PRC2 complexes (MW=600 kDa) were used in vitro assays to determine methylase activity in the presence of novel stimulating agents.
[…] For detection, Streptavidin FlashPlate HTS PLUS were used (High Capacity, 384 well, Perkin Elmer product # SMP410001PK).
A workflow used for high throughput assays was as follows: • 1. Preparation of assay plates using the ECHO® (Labcyte) (240 nl of DMSO or compound per well) • 2. Preparation of Mix I+II; I: 1202×15 μl; II: 1202×15.0 μl (dead volume ˜50 reactions) • Mix I • 6.0 μl 5× HMT buffer • 0.45 μl DTT 0.2M • 1.0 μl rPRC2 • 1.0 μl H3K27me3 peptide • 0.11 μl Bio/Avi-oligonuc. 1:10 • 6.44 μl water • 15.0 μl • Mix II • 1.0 μl ^3H-SAM • 14.0 μl water • 15.0 μl • 3. Adding Mix I to assay plate using the Multidrop (15 μl per well) • 4. Adding Mix II to assay plate using the Multidrop (15 μl per well) • 5. Mix content of wells in the assay plate • 6. Spin plate for 1 min at 400 RPM • 7. Incubate assay plate for 60 min at 30° C. • 8. Quench reaction by adding 30 μl of SAH [1.25 mM] to each well (mix); final conc.=568 μM • 9. […]
Stimulation of rPRC2 methylase activity was determined in the presence of unmodified H3, H3K4me3, H3K9me3, H3K27me3, H3K36me3, H3K79me3, H4K20me3, and H1.4K26me3. […]

Chain of rPRC2 (Q15910 1-751 isoform Q15910-2): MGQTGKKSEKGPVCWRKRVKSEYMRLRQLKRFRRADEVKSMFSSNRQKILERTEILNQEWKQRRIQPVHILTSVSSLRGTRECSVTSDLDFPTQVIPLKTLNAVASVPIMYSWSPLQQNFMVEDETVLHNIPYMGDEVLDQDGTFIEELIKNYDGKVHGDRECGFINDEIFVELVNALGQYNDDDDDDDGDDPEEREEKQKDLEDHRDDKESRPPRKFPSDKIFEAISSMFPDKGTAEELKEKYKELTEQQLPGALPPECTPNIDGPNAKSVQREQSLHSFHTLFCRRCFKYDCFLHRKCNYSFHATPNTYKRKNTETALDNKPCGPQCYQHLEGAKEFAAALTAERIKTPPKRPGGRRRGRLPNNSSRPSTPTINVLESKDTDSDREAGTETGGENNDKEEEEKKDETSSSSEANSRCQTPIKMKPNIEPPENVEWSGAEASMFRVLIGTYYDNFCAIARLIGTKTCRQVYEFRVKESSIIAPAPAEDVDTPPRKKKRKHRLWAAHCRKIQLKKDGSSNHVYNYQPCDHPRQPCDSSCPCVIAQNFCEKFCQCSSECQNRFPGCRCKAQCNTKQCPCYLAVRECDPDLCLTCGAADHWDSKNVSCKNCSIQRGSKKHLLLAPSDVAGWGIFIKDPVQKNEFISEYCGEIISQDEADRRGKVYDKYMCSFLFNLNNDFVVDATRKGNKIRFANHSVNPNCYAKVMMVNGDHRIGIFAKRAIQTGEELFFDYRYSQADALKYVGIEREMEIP
Chain of rPRC2 (O75530 whole entry): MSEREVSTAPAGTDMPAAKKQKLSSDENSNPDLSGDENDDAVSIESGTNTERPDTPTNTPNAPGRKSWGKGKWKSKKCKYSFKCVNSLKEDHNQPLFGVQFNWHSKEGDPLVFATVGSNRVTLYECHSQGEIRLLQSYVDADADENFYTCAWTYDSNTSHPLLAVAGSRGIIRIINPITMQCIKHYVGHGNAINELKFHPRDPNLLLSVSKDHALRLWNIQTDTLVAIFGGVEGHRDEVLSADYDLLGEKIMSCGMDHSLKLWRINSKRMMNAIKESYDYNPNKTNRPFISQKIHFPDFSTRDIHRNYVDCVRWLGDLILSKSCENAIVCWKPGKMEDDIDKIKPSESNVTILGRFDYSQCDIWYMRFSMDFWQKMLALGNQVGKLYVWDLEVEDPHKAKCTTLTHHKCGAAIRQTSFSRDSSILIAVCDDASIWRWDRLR
Chain of rPRC2 (Q15022 whole entry partner): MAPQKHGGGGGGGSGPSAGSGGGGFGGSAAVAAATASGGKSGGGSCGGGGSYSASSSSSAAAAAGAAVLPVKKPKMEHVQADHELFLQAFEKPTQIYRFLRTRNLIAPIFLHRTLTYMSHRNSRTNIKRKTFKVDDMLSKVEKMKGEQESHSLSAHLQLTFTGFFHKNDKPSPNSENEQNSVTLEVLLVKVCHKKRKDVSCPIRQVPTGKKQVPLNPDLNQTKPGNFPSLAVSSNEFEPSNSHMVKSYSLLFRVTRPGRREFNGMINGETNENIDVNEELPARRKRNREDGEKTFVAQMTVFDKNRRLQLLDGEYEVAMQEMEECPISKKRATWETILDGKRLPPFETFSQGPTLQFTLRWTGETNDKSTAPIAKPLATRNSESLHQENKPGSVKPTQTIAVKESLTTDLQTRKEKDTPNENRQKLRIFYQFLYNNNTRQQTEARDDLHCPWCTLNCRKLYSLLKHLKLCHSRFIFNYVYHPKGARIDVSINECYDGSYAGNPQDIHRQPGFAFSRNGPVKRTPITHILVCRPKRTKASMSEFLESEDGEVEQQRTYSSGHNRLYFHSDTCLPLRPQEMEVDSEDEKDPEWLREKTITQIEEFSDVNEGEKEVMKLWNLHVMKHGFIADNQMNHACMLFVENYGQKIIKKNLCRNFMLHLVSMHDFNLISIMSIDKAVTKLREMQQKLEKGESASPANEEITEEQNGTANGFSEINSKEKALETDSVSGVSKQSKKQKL
Chain of rPRC2 (Q16576 whole entry partner): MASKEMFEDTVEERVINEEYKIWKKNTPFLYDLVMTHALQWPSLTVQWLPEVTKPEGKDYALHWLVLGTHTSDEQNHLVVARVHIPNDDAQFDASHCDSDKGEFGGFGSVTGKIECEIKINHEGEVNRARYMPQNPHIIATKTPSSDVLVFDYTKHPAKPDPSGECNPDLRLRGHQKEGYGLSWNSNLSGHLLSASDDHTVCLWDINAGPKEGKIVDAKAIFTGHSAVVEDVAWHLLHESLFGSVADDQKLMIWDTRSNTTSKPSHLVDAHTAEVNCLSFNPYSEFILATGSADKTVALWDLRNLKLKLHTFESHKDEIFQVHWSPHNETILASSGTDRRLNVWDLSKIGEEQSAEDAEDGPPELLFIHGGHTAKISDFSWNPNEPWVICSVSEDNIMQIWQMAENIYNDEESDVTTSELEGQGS
Chain of rPRC2 (Q09028 whole entry partner): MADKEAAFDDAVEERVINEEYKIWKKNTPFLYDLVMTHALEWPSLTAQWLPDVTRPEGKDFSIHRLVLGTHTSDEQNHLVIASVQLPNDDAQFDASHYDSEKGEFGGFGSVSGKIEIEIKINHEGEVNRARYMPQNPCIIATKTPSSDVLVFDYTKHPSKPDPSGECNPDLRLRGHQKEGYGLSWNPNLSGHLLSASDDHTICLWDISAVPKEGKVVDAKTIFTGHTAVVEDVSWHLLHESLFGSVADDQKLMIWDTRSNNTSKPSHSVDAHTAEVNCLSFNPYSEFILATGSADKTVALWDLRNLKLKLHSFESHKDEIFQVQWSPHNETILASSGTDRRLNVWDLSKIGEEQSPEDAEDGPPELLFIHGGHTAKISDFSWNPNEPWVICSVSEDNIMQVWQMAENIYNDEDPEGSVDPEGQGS

Monomethylated H3K27 peptide: in assay [1], the stimulation of rPRC2 methylase activity toward Bio/Avi-H3 was found to be 4 fold.
On to “ARTKQTAR[Kme3]STGGKAPRKQLA(-Biotin) [H3K9me3]”, for which the “stimulation of rPRC2 methylase activity toward oligonucleosomes (relative to unmodified H3)” value on rPRC2 (enzyme 12.15 nM) is “over 9 fold”.
For “VKKKAR[Kme2]SAGAAKRKASG(-Biotin) [H1.4K26me3]”, the “stimulation of rPRC2 methylase activity toward oligonucleosomes (in words)” value on rPRC2 is “Stimulation”.
Take Dimethylated H3K27 peptide: the stimulation of rPRC2 methylase activity toward Bio/Avi-H3 in assay [1] worked out at 6 fold.
